In US20080311122, “Antagonists of Hmgb1 and/or Rage and Methods of Use Thereof” (Medimmune, LLC, published 2008):

Key:
HMGB1 + RAGE/Fc complex [1] = molecular target: T1, HMGB1 + RAGE/Fc complex (Bos taurus / Mus musculus, UniProt P10103;Q62151 P10103:2-215,Q62151:23-340); assay: ELISA; CpG-A associates with immobilized RAGE/Fc only when pre-complexed with HMGB1; CpG-A lowers EC50 of HMGB1-RAGE binding 100-1000 fold; settings: tags: thymus HMGB1; RAGE Fc fusion (R&D Systems); label: biotin (ELISA)
T1 chain 1: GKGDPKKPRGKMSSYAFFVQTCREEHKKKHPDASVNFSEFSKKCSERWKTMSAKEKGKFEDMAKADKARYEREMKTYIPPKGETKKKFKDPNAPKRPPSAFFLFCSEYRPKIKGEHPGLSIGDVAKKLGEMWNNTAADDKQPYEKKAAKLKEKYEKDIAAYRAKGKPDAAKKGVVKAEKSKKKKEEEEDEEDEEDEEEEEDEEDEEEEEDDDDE
T1 chain 2: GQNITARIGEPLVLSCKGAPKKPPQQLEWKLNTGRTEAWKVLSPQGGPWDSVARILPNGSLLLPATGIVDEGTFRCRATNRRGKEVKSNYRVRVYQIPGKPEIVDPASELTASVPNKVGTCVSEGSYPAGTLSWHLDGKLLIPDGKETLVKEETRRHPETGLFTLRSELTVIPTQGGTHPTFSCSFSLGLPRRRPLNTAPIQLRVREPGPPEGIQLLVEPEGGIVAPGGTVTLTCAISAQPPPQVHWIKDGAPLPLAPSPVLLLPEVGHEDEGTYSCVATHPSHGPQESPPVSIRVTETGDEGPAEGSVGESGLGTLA
Description: (§1) CpG ELISA: Proteins or peptides were diluted in PBS to the concentration of 5 μg/ml and coated onto plates at 4° C. o/n. Plates were blocked with 4% dry milk in PBS. Biotin labeled CpG-A alone or in complex with HMGB1 were incubated in the plates at 37° C. for 1 hr. and detected with HRP labeled strep-avidin.

[2] = molecular target: T2, HMGB1 (native, calf/bovine thymus) (Bos taurus, UniProt P10103 P10103:2-215); assay: apparent Kd; intrinsic tryptophan fluorescence quench, 1.7 uM HMGB1, 1:10 DPBS, 25 C; settings: tags: none; purified from bovine thymus at Medimmune; label: biotin (ELISA)
Description: Tryptophan emission for CpG-A binding to HMGB1: Fluorescence titrations and spectra of HMGB-1 were carried out at 25° C. with a SPEX Fluoromax-3 spectrofluorimeter, monitoring the HMGB-1 intrinsic tryptophan emission at 347 nm (8 nm bandwidth) with 280 nm excitation (3 nm bandwidth) in a masked capped dual-pathlength (0.2×1.0 cm) quartz cell (Hellma Cells, Inc., Jamaica, N.Y.) upon stepwise addition of CpG-A (0.5 mM) to a 1.7 μM solution of HMGB-1 in 1:10 Dulbecco Phosphate Buffered Saline (PBS) solution (Invitrogen, Carlsbad, Calif.). Complex formation between HMGB-1 and the nucleic acid was monitored by the change in the initial fluorescence of the protein. HMGB-1 fractional saturation was inferred from the ratio of observed fluorescence change to maximal change (at saturation), Fₗᵢₘ, for each of the nucleic acid additions. Binding affinity was calculated from graphs of relative fluorescence intensity versus [nucleic acid base]/[protein].The occluded binding site size (n) was derived from the intersection of the extrapolated initial slope with the limiting fluorescence plateau in the equilibrium binding isotherms. The measurements for assessment of Tryptophan emission are reviewed in detail in Lakowicz, 2000, Photochem. Photobiol. 72, 421-437.
The binding of immobilized HMGB1 to soluble CpG-A was determined by ELISA (FIG. 33, top left). […]

HMGB1 B-box peptide = HMGB1 B-box peptide (Homo sapiens, UniProt P09429 SEQ:1-69); assay: affinity comparable to full-length HMGB1; data not shown; stated only as CpG DNA; settings: protein: synthetic; tags: synthetic peptide, New England Peptide; label: biotin (ELISA)
Description: as §1

HMGB1 A-box peptide = molecular target: T3, HMGB1 A-box peptide (Homo sapiens, UniProt P09429 SEQ:1-77); assay: as above; settings: protein: synthetic; tags: synthetic peptide, New England Peptide; label: biotin (ELISA)
T3 sequence: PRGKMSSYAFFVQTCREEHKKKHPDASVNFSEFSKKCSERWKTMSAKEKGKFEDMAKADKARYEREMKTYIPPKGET
Description: as §1

RAGE/Fc = molecular target: T4, RAGE/Fc (Mus musculus, UniProt Q62151 Q62151:23-340); assay: ELISA, CpG-A alone on immobilized RAGE/Fc; settings: tags: Fc fusion, R&D Systems; chain copies: 2; label: biotin (ELISA)
T4 chain: T1 chain 2

[3] = molecular target: T2, HMGB1 (native, calf/bovine thymus); assay: non-stimulatory CpG-A control sequence bound; tryptophan fluorescence; settings: tags: none; purified from bovine thymus at Medimmune
[4] = molecular target: T2, HMGB1 (native, calf/bovine thymus); assay: random DNA not bound; settings: tags: none; purified from bovine thymus at Medimmune
HMGB1 + RAGE/Fc complex [5] = molecular target: T1, HMGB1 + RAGE/Fc complex; assay: HMGB1/CpG-B complex failed to augment binding to RAGE; data not shown; settings: tags: thymus HMGB1; RAGE Fc fusion (R&D Systems)
[6] = molecular target: T2, HMGB1 (native, calf/bovine thymus); assay: data not shown; p546 states conversely that HMGB1 binds both A and B class ODN; settings: tags: none; purified from bovine thymus at Medimmune

In the case of GGGGGACGATCGTCGGGGGG (ssDNA) [CpG-A (ODN2216)], the binding result (HMGB1 + RAGE/Fc complex [1]) is reported as “binds”, the Kd [2] is reported as 70 nM and the binding result (HMGB1 B-box peptide) is reported as “binds”. GGGGGACGATCGTCGGGGGG (ssDNA) [CpG-A (ODN2216)]: binds (HMGB1 A-box peptide); no binding (RAGE/Fc).

GGGGGAGCATGCTGGGGGGC (ssDNA) [control ODN for CpG-A (non-stimulatory)]: binds [3].

GGTCGTTCCATTTTACTCCAC (ssDNA) [random DNA ODN]: no binding [4].

TCGTCGTTTTGTCGTTTTGTCGTT (ssDNA) [CpG-B (ODN 2006)]: no binding (HMGB1 + RAGE/Fc complex [5]); no binding [6].
